# Results published in patent publication US20110206696A1, “METHODS FOR INHIBITING BONE LOSS AND BONE METASTASIS” (THE WASHINGTON UNIVERSITY, priority 2010, published 2011).
# B1: RANKL: receptor activator of nuclear factor-KB ligand, cytokine for differentiation of macrophages into osteoclasts (protein, UniProt O14788 140-317, looked up)
# Tumor necrosis factor ligand …: IRAEKAMVDGSWLDLAKRSKLEAQPFAHLTINATDIPSGSHKVSLSSWYHDRGWAKISNMTFSNGKLIVNQDGFYYLYANICFRHHETSGDLATEYLQLMVYVTKTSIKIPSSHTLMKGGSTKYWSGNSEFHFYSINVGGFFKLRSGEEISIEVSNPSLLDPDQDATYFGAFKVRDID
# modifications: GST tag
# Legend:
# CD47 [1] = target: T1, CD47 (Homo sapiens, UniProt Q08722); settings: cited from earlier work
# SIRP = SIRP (Homo sapiens, UniProt P78324); settings: cited from earlier work
# CD47 [2] = target: T1, CD47; settings: cited from earlier work; remark: listed apart in the source
# CD47−/− macrophages = assay: In vitro osteoclast differentiation, actin ring and bone resorption assays at high RANKL dose; assay type: cell-based, mouse; settings: RANKL increased two-fold to 100 ng/ml; 50 ng/ml M-CSF
# Experimental: A. FACS analysis on WT and CD47-/- total bone marrow. WT and CD47-/- total bone marrow was stained for CD47 and F4/80. B. QPCR graph showing induction of CD47 transcript over the 7-day course of OC differentiation. C. Representative images of day 5 OCs cultured on bone and stained for TRAP (left panel) and cultured on bovine bone and stained for actin rings (right panel) in the presence of 50 ng/ml of M-CSF and 50 ng/ml or 100 ng/ml of RANKL are shown. D. Representative images of day 5 OCs cultured on bone and stained for resorption lacunae in the presence of 50 ng/ml of M-CSF and either 50 ng/ml of RANKL (left panel) and 100 ng/ml of RANKL (right panel) are shown. E. The pit (resorption lacunae) area was measured by histomorphometry. 50 ng/ml RANKL (p=0.04), 100 ng/ml RANKL (p=0.18). To investigate if the OC defect is cell-autonomous in CD474-/- mice, it was first determined if macrophages or OC precursors were decreased in CD47-/- bone marrow. WT and CD47-/- whole bone marrow were stained with CD47-FITC as control and F4/80 as a macrophage marker and carried out flow cytometry. No significant difference in F4/80+cells in CD47-/- bone marrow compared to WT control was observed (FIG. 3A). To test the differentiation of macrophages to OCs, we cultured whole bone marrow in M-CSF alone for 3 days to enrich for macrophages. […]
# CD47−/− mice = assay: In vivo RANKL injections, serum CTX and calvarial TRAP staining; parameters: species or system mouse; settings: RANKL injected subperiostally into midline calvaria of 8-week old mice, once a day for 5 days
# Experimental: A. 100 μg of RANKL was delivered subperiostally onto the midline calvaria of WT (n=5) and CD47−/− (n=5) mice. Serum CTX was measured before and after RANKL injections. WT vs. CD47−/− pre-RANKL p<0.01, WT vs. CD47−/− post-RANKL p=0.74, WT pre-RANKL vs. post-RANKL p=0.03, CD47−/− pre-RANKL vs. post-RANKL p<0.01. B. Representative images of TRAP stained calvarial sections. Arrows point to recruited OCs.
# We measured serum CTX pre and post-RANKL injections in these mice. Pre-RANKL injection, CD47−/− mice had lower serum CTX as we have shown before (FIG. 4A). […] Furthermore, direct visualization of OC recruitment by TRAP staining on histological sections of calvarial bone in WT and CD47−/− mice confirmed the CTX results (FIG. 4B). We conclude that a high dose of RANKL rescued the cell-autonomous OC defect in CD47−/− mice.
# CTX was measured from WT or CD47−/− mouse fasting serum by using a CTX ELISA system (Nordic Bioscience Diagnostics, Herlev, Denmark).
# 100 μg of RANKL in a volume of 40 μl was injected subperiostially in the midline calvaria in 8 week-old mice once a day for 5 consecutive days. On the sixth day, serum was collected, mice were sacrificed and the calvarial bone was isolated. TRAP staining was performed on fixed, decalcified and paraffin-embedded calvarial bone.
# T1 sequence (Q08722 19-323, species assumed): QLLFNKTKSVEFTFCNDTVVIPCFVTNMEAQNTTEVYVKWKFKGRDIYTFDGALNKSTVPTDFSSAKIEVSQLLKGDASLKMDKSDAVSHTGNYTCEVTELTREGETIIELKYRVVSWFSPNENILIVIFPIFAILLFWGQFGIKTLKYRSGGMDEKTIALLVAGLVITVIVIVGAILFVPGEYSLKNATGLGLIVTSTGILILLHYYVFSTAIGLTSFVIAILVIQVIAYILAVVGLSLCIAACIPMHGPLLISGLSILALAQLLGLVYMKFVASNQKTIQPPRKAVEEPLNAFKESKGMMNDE
# Sequence of SIRP (P78324 31-504, species assumed): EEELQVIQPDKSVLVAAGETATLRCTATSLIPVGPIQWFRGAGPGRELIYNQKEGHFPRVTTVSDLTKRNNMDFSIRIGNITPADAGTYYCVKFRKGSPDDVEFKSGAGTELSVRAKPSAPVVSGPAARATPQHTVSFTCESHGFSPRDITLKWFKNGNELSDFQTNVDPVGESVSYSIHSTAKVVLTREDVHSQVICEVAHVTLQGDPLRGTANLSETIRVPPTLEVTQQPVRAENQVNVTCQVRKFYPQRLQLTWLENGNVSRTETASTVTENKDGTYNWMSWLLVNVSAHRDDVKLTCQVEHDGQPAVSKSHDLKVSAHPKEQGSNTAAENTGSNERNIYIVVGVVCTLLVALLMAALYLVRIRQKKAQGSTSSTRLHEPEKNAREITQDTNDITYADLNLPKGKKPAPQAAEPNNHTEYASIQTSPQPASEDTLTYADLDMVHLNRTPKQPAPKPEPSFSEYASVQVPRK
molecule,measurement,setting,value
CERVIGTGWVRC,CD47 activity / signaling,CD47 [1],inhibit CD47 activity in vitro
same,Binding to SIRP,SIRP,binds to SIRP
IGWKDFTAYR,Binding to CD47,CD47 [2],found to bind CD47
"p7N3: CD47-binding peptide from the C-terminal module of TSP1, FIRWMYEGKK",CD47 activity / signaling,CD47 [1],blocked (or disrupted) CD47 signaling
B1,OC differentiation of CD47−/− cells,CD47−/− macrophages,OC differentiation defect was largely rescued
same,"OC activation as measured by serum CTX, WT vs CD47−/− mice after RANKL",CD47−/− mice,not significantly different
